We go through 41 sequences from the nanobody polyreactivity screen of Harvey et al. (2022).

The series is described as follows: yeast display, Sf9 membrane polyspecificity reagent, FACS + sequencing; frameworks hold sequencing errors. The method, boiled down:
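Nanobodies from a synthetic yeast display library (Saccharomyces cerevisiae BJ5465), induced 36–48 hours with galactose, were stained 1 hour at 4 °C with 10% biotinylated, detergent-solubilized Sf9 membrane reagent, enriched on streptavidin microbeads, then FACS-sorted. Anti-HA (expression) and streptavidin (reagent binding) fluorescence set low and high (top ~1%) gates. Polyreactivity labels come from the gate of origin. Genes were colony-PCR amplified, MiSeq 2 × 250 sequenced and filtered by CDR length.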
With “QVQLVESGGGLVQAGGSLRLSCAASGFTFGYNTMGWYRQAPGKERELVATITSGGSTYYADSVKGRFTISRDNAKNTDYLQMNSLKPEDTAVYYCAATAGSPWAKSRYGYWGQGTQVTVSS”, the “polyreactivity (PSR sort gate)” value is reported as “low polyreactivity”.
As for “QVQLVESGGGLVHAAGSLRLSCAASGRTFRYNTMGWYRQASGKESELVARITRSGGSTYYADSVKGRFTISRDNAKNTVYLQMNSLKPEDTAVYYCAAVPILVYRWFQYYTGDYDYWGQGTQVTVSS”, the entry is “low polyreactivity”; as for “QVQLVESGGGLVQAGGSLRLSCAASGSIFSFYTMGWYRQAPGKERELVASSTTYADSVKGRFTISRDNAKNTVYLQMNSLQPEDTAVYYCATRHPARRDYWGQGTQVTVSS”, “low polyreactivity”; as for “QVQLVESGGGLVQAGGSLRLSCASSGSTFSYYTMGWNRQAPGKERELVAAITRSGGRTYYADSVKGRFTISRDNAKNTVYLQMNSLKPEDTAVYNCAAYRANSGEFDYWGQGTQVTVTS”, “high polyreactivity”.
As for “KVQLVESGGGLVQAGGSLRLSCDASGSIFTLNAMGWYRQAPGKARELVAAISSGGGTYYSDSVKGRFTISRDNAKNTVYLQMNTLKPEDSAVYYCAAEHYILDDYLCDYDYWGQGTQVTVSS”, the entry is “high polyreactivity”.
As for “QDQLVESGGGLVQAGGSLRISCAASGSIFAWYAMAWYRESPGKERELVATITWSGGSTYYADSVKGRFTISRDNAKNTVYLQMNSLKPEDTAVYYCAAEVVGIWYDLWYQGDYWGQGTQVTVSS”, the entry is “low polyreactivity”; as for “QDQLVESGGGLVQAGGSLRLSCAPSGFILATNAMGWYRPAPGKERELVAAISYSCGSTNYADSVKGRFTISRDNAKNTVYLQMISLKPVDTAVYYCNDGGSVIWAWYGPVYSWGQGTQVTVSS”, “low polyreactivity”.
“QVQLVESGGGLVQAGGSLRLSCAASGRIFYPYAMGWYIQAPGKERELVADISIGGSTNYADSVKGRFTISRDNAKNTVYLQMNSLKPEDTAVYYCNAGGGFYGSTVEHDYWGQGTQVTVSS”: the “polyreactivity (PSR sort gate)” value is given as “low polyreactivity”.
With “QVQLVESGGGLVQAGGSLRLSCAASGSTFYPYAMGWYRQAPGKERELVAAISSRDGRTYYADSVKGRFTISRDNAKNTVYLQMNSLKPEDTAVYYCAASSFNNGHRYDYWGQGTQVTVSS”, the “polyreactivity (PSR sort gate)” value was “high polyreactivity”.
On to “QFQLVESGGGLVQAGGSLRLSCAASGRTFQLNAMGWYRQAPGKERELVAAISTRGGSTNYADSVKGRFTISRDNAKNTVYLQMNRLKPEDTAVYYCAKDPSFTRGFKEGGGYDYWGQGSQVTVSS”, for which the “polyreactivity (PSR sort gate)” value was “high polyreactivity”.
The same measure for “QVQLVESGGRLVQAGGSLRLSCAASGFTYQGNAMGWYRQAPGKERVLVAAISRGGSTYYADSVKGRFTISRDNAKNTVYLQMNRLKPEDTAVYYGAAKPSVDLDYWGQGTQVTVSS”: “high polyreactivity”.
The same measure for “QVQLVESGGGLVQAGGSLRLSCAASGSTSVVNAMGWYRQAPGKERELVATITRSAGRTYYADSVKGRFTISRDNAKNTVYLQMNSLKPEDTAVSYCAKDTDISTHHSKGRAKSRYDYWGQGTQVTVSS”: “low polyreactivity”; for “QVQLVESGGGLVQAGGSLRLICAASGNIFAYYAMGWYRQAPGKERELVAGISRRAGNTYYADSVTGRFTISRDNAKNTVYLHMNSLKREDTAFYYCNKYTKRSGMDYWGQGTQVTVSS”: “high polyreactivity”.
The same measure for “QVQLVESGGGLVQAGGSLRLSCAASGSTFYRYAMGWYRQAPGKERELVAAISRGGGRTNYADSVKGRFTISRDNAKNTVYLQMNSLKPEDTAVYYCAADDTYTRYDYWGQGTQVTVSS”: “high polyreactivity”; for “KVQLVESGGGLVQAGGSLRFSCAASGFIFRNYAMGWYRQAPGKERELVAAITARGTRTYYSDSVKGRFTISRDNAKNTVYLQMNSLKPEDTAVYYCAAVVLPSRQYDYWGQGTQVTVSS”: “high polyreactivity”; for “QVQLVESGGGLVQAGGSLRLSCAASGRTFGFNAMGWYRQAPGKERELVAAISSSSSSTYYADSVKGRFTISRDIAKNTVYLQMNSLKPEDTAVYYCAADIVYVTWFYYWGQGTQVTVSS”: “low polyreactivity”.
On to “QVQLVESGGGLVQAGGSLRLSCAASGRTFTSNAMGWYRQAPGKEREFVAAITRSTGSTNYADSVKGRFTISRDNAKNTVYLQMNSLKPEDTAVYYCNAYLYYKGRYSRQYYYWGQGTQVTVSS”, for which the “polyreactivity (PSR sort gate)” value was “high polyreactivity”.
With “QVQLVESGGGLVQAGGSLRLSCAASGSTFAYNAMGWYIQAPGKERELVAAISTSGGSTNYADSVKGRFTISRDMSKNTVYLQMNSLKPEVTAVYFCAARPKTPSITRYGYWGQGTHVTVSS”, the “polyreactivity (PSR sort gate)” value was “high polyreactivity”.
As for “QVQLVESGGGLVQAGGSLRLSCASSGRIFSWYTMGWNRQAPGKVSELVPVITSGGTTKYADSEKGRFTISRDNAKNTVYLQMNSLKPEDTAVYYCNVAGRDYAVRWGSFDYWGQGTQVTVSS”, the entry is “low polyreactivity”; as for “QLQLQEGGGGLVQAGGSLRLSCAASGYISYGDVMGSYRQAPGEERELVASIGLDATTNYADSVKGRFNISRDNAKITVYLQMNSLKPEDTAVYYCAAVVGSGVLCGYWGQGTQMTVSS”, “high polyreactivity”; as for “QVQLVESGGVLVQAGGSLRLSCAASGSIFDSNAMGWYRQAPGKERELVAAISWSGSRTYYADSVKGRFTISRDYAKNTVYLQILSLKPEDTAVYYCAALVRRYGKYDYWGQCTQVTVSS”, “high polyreactivity”.
Regarding “QVQLVESGGGLVQAGGSLRLSCAASGSTFPPNAMGWYRQAPGKERELVAAISERGGSTYYADSVKGRFTISRDNAKNTVYLLMNSLKPEDTAVYYCAVDYYYLMYWGQGTQVTVSS”, the “polyreactivity (PSR sort gate)” value is “low polyreactivity”.
For the sequence “QVQLVESGGGLVQAGGSLRLSCAASGRTFSYYTMVWYRQAPGKERELVARISNRGTNTYYADSVKGRFTISRDNAKNTVYLQMNSLKPEDTAVYYCAKYYYTSIVGYDSWGQGSQVTVSS”, the “polyreactivity (PSR sort gate)” value is given as “low polyreactivity”.
Regarding “QVQLVESGGGLGQAGGSLRLSCAASGITFSGNAMRWYRQAPGKEREYVAAITWRGENTYYADSVKGRFTISRDTAKNTVSLQMNSLKPVDTAVYYCAAISPLVGLTSYRGPDDSWGQGTQVTVSS”, the “polyreactivity (PSR sort gate)” value was “low polyreactivity”.
As for “QVQLVESGGGLVQAGGSLRLSCAASGSIFITNAMGWYRQAPGKERELVATITDSGGSTYYADSVKGRFTISRDNAKNTVYLQMNSLKPEDTAVYYGAKDRVYLTRVYHYDYWGQGTQVTVSS”, the entry is “low polyreactivity”; as for “QVQLVESGGGLVQAGGSLRLSCAASGLTFVTYVMGWYRQAPGKERELVAAISYSGGSTYYADSVKGRFTISRDNAKNTVYLQMISLKPEDTAVYYCAAEWYGYQEDDYWGQGTQVTVSS”, “low polyreactivity”; as for “QVQLVESGGGLVQAGGSLRLSCAASGFNFDGNAMGWYRQAPGKERELVAAISSSSGRTRYADSVTGRFSISRDNAKNTVYLQMNSLKPEDTAVYYCAARRQSTRPGFYYWGQGTQVTVSS”, “high polyreactivity”.
The same measure for “QVQLVESGGGLVQAGGSLRLSCAASGRIFRIYAMGWYIQAPGKERELVARITYSVGSTYYADSVKGRFTISRDNEKNSVFLQMNSLKPEDTSVYYCAADWLGYQYGYWGQGSQVTVSS”: “low polyreactivity”; for “QVQLEDSGGGLVQAGGSLRLSSPASGRIFGWYAMGWYRQAPGKERELVATISYSGASTYYADSVKGRFTISRDNAKNTVYLQMNSLKPEDTAVYYCAAVYHKNGCGDYSWGQGTQVTVSS”: “high polyreactivity”; for “QVQLVESGGGLVQAGGSLRLSCAASGFTFSFYAMGWYRQAPGKERELVATISSGGSTTYADSVKGRFTISRDNAKNTVYLQMNSLKPEDTEVYYCAARYGRVRNYRYDYWGQGTQVTVSS”: “high polyreactivity”.
As to “QVQLVESGGGLVQAGGSLRLSCAASGRIFSAYAMGWYRQAPGKERELVAAISRSRGRTYYADSVKGRVTISRDNAKNTVYLQMNSLKPEDTAVYYCAAARFAIVRGDYWGQGTQVTVSS”, the “polyreactivity (PSR sort gate)” value was “high polyreactivity”.
The same measure for “QVQLVESGGGLVQAGGSLRLSCAASGIIFYYYAMGWYRQAPGKERELVAAISWSGGSTYYADSVKGRFTISRDNAKNTVYLQMNSLKPEDTAVYYCAAAFSPGWWSRHTYDYDYWGQGTQVTVSS”: “high polyreactivity”; for “QVQHVESGGGLVQEGGSLRVSCAASGSIFGTNDMGWYRQAPGKERELVAAISSSGASTYYADSVKGRFTISRDNAKNTVYLQMNSLKPEDTAVYYCARGYTYQYSSFYYWGQGTQVTVSS”: “low polyreactivity”.
The same measure for “QVQLVESGGGLVQAGRSLRLSCAASGRTMNGNAMGWYRQAPGKERELVAAITRGGSTYYADSVKGRFTISRDNEKNSVYLQMYSLKPEVTAVYYCAADARYTGYYYWGQGTQVTVSS”: “high polyreactivity”.
As for “QVQLVESAGGLVQAGGSLRLICDASGSTFGYYAIGWYRQAPGKEREVVAVINKSGGRTYYADSVKGRFTISRDNAKNTVYLQMNSLNPVDTAVYFCATRVTSTRHDYWGQGTQVTVSS”, the entry is “high polyreactivity”; as for “QVQLVESGGGLVQAGGILRLSCAASGRILVSYAMGWYRQAPGKERELVAAISRSGGSTYYADSVKGRFTISRDNAKNTVYLQMNSLKPEDTAVYYCNVYRFSRYDYWGQGTQVTVSS”, “high polyreactivity”.
With “QVQLVESGGGLVQAGGSLRLICAASGSIRYYAMGWYTQAPGKEREFVAAISRRGSSTNYADSVKGRFTISRDNAKNTVYLQMNSLNPEDTAVYNCAAAARAGLKRYYYWGQGTQVTVSS”, the “polyreactivity (PSR sort gate)” value is “high polyreactivity”.
As for “QVQLVESGGGLVQAGGSLRLICAASGRTFALYAMGWYRQAPGKEREVVASISWRGGSTYYADSVKGRFTISRDTAKNTVYLQMNSLKPEDTAVDYCAADTWSYGPLNYRLEYWGQGTQVTVSS”, the entry is “low polyreactivity”; as for “QVQLVESGGGLVQAGGTLRLSCAASGSIFLINAMGWYRPAPGKERELVAAISRSGGRTYYADSVKGRFTISRDNAKNTVYLQMNSLKPEDTAVYYCAVPSIYYAGRAYDYWGQGTQVSVSS”, “high polyreactivity”.
The same measure for “QVQLVESGGCLVQAGGSLRLSCAASGFIFPPNAMGWYRQAPGKERELVASISSSGGSTYYADSVKGRFTISRDNAKNTVYLQMNSLKPEDTAVYYCAADWFYGWGKYDYWGQGTQVTVSS”: “low polyreactivity”; for “QVQLVESGGGLFQAGGILRLSCAASGRTFHRNAMGWYRLAPGKERELVAAITGDGRTNYADSVKGRFTISRDNAKNTVYLQMNSLKPEDTAVYYCAARFSYRSYDYWGQGSQVTVSS”: “low polyreactivity”.
